Experimental data: US20240156980A1 (Molecular Partners, published 2024)
Substitutions are numbered along the chain they refer to. Each block holds one binder with its values, some of them ahead of it.

Assays:
[1] = molecular target: T1, recombinant human EGFR extracellular domain (human, UniProt P00533 25-645); test: SPR (ProteOn XPR36); biotinylated DARPin captured on NLC chip, EGFR ECD as analyte; 1:1 Langmuir fit
T1 construct: range 25-645; The range L25-S645 is stated for the ECD used in the selection; the SPR analyte is printed as hEGFR / recombinant human EGFR ECD; also called hEGFR; human EGFR ECD
Procedure: (§1) All SPR measurements were performed using a ProteOn™ XPR36 Protein Interaction Array System (Bio-Rad). […] PBS pH7.4 containing 0.005% Tween-20 (Sigma) was used as flow buffer, which was additionally supplemented with 1 mg/ml BSA in the case of mEGFR target. A three-fold dilution series from 0.74 nM to 60 nM of hEGFR or mEGFR was injected for 180 s at a flow rate of 100 ul/min, and dissociation was recorded for 1800 s. The captured DARPin molecules were regenerated by a single pulse of 10 mM glycine-HCl, pH 2.5+1M NaCl. The data was double-referenced using the interspots (surface reference) and a blank injection (buffer reference). Each individual dilution-set was fitted to the Langmuir-1:1-model.

[2] = molecular target: T2, recombinant mouse EGFR extracellular domain (mouse, UniProt Q01279 25-647); test: as above
T2 construct: extracellular domain; Bought protein; also called mEGFR; mouse EGFR ECD
Procedure: as §1

human CD3 on T cells [3] = molecular target: T3, human CD3 on T cells (human, UniProt P07766 23-207; P09693 23-182; P04234 22-171); test: cell-based or functional assay
T3 sequence (P07766 23-207, chain 1 of 3): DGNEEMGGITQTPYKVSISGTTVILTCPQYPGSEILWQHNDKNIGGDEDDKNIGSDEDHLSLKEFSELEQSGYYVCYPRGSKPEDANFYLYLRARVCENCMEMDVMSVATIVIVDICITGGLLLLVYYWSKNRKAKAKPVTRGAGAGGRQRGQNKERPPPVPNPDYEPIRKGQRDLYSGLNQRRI
T3 sequence (P09693 23-182, chain 2 of 3): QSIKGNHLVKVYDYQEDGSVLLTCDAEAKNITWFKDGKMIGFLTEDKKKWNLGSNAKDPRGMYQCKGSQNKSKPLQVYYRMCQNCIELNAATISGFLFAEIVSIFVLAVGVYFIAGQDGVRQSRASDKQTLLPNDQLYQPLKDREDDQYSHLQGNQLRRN
T3 sequence (P04234 22-171, chain 3 of 3): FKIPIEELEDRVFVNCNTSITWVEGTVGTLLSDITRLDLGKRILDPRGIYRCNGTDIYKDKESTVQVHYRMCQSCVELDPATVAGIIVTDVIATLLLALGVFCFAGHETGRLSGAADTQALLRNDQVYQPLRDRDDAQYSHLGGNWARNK

human CD3 on T cells [4] = molecular target: T3, human CD3 on T cells; test: flow cytometry on Jurkat cells, detection with anti-DARPin antibodies and anti-rabbit IgG Alexa Fluor 488, MFI [column T-cell binding]
Procedure: (§2) The determination of CD3 binding was performed with human CD3 on Jurkat cells, and binding to hEGFR on cells with HCT116 tumor cells, using Flow Cytometer Attune Nxt. A titration of prodrug DARPin molecules was incubated with 200′000 cells per well (for both Jurkat and HCT116 cells) for 30 min at 4° C. After washing, CD3 binding of DARPin® molecule was detected by 1:1000-diluted anti-DARPin® Antibody-Mix (1 h incubation at 4° C.) with the corresponding secondary antibody anti-rabbit IgG Alexa Fluor 488 (30 min incubation at 4° C.), which was added after washing off excess anti-DARPin Antibodies. Cells were subsequently washed and stained for livedead (aqua, 1:1000, thermofisher) and resuspended in Cytofix fixation buffer (BD Biosciences). Median of mean fluorescence intensities of Alexa Fluor 488 binding on live cells were measured by Flow Cytometry and data was plotted using GraphPad Prism 8.

[5] = molecular target: T4, human EGFR on tumor cells (human, UniProt P00533 25-1210); test: flow cytometry on HCT 116 tumor cells, detection with anti-DARPin antibodies
T4 construct: whole, on cells; also called EGFR on A431 cells
Procedure: as §2

[6] = molecular target: T5, CD3-specific binding domain C7v14; test: SPR validation of down-tuned binders
T5 construct: Used as analyte in SPR; also called hC22_88B02v14
T5 chain: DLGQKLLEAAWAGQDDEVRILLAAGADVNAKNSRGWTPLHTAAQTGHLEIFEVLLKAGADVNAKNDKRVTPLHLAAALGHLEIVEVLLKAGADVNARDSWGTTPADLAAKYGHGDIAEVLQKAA

[7] = molecular target: T4, human EGFR on tumor cells; test: cell-based or functional assay

B1: anti-EGFR DARPin (biotinylated, monovalent EGFR-specific ankyrin repeat domain) (designed binder)
chain: MGSDLGYKLLRAAFHGQDDEVRILLAAGADVNAKDLIGQTPLHNAAWVGHLEIVEVLLKAGADVNAKDYYGNTPLHLAAHDGHLEIVEVLLKAGADVNAQDTWGETPADLATNAGHEDIAEVLQKAA
modifications: biotinylated (site not stated)
Kd [1]: 0.47 nM | koff [1]: 0.0002 s⁻¹ | kon [1]: 420000 M⁻¹ s⁻¹ | Kd [2]: 0.49 nM | koff [2]: 0.00032 s⁻¹ | kon [2]: 640000 M⁻¹ s⁻¹

B2: CD3-PDD NCL EGFR-C7v119-[NCL1]-06E05v05-6His (designed binder)
chain: MGSDLGYKLLRAAFHGQDDEVRILLAAGADVNAKDLIGQTPLHNAAWVGHLEIVEVLLKAGADVNAKDYYGNTPLHLAAHDGHLEIVEVLLKAGADVNAQDTWGETPADLATNAGHEDIAEVLQKAAGSPTPTPTTPTPTPTTPTPTPTGSDLGQKLLEAAWAGQDDEVRELLKAGADVNAKNSRGWTPLHTAAQTGHLEIFEVLLKAGADVNAKDDKGVTPLHLAAALGHLEIVEVLLKAGADVNAQDSWGTTPADLAAKYGHEDIAEVLQKAASGPTPTPTTPTPTPTTPTPTPTGSDLGKKLLQAARAGQLDEVRELLKAGADVNAKDAKGLTPLHLAAYHGHLEIVEVLLKAGADVNAKDVYGWTPLHIAAASGHLEIVEVLLKAGADVNAKDALGWTPLHLAASHGHLEIVEVLLKAGADVNAQDKSGKTPADLAARAGHQDIAEVLQKAAGSHHHHHH
tumor cell killing EC50 (LDH release), HCT 116 tumor cells and pan T-cells (human CD3 on T cells [3]): 0.0821 nM

B3: CD3-PDD NCL EGFR-C7v122-[NCL1]-06E05v05-6His (designed binder)
chain: B2 chain with D216N, G219R, Q248R, E265Q
tumor cell killing EC50 (LDH release), HCT 116 tumor cells and pan T-cells (human CD3 on T cells [3]): > 0.1 nM

B4: CD3-PDD NCL EGFR-C7v119-[NCL1]-06E05v07-6His (designed binder)
chain: B2 chain with A398W, H410A
binding result (human CD3 on T cells [4]): no binding (tested: 100000 pM) | EC50 [5]: 0.503 nM

B6: CD3-PDD CL EGFR-C7v119-[Linker#2]-06E05v07-6His (designed binder)
chain: MGSDLGYKLLRAAFHGQDDEVRILLAAGADVNAKDLIGQTPLHNAAWVGHLEIVEVLLKAGADVNAKDYYGNTPLHLAAHDGHLEIVEVLLKAGADVNAQDTWGETPADLATNAGHEDIAEVLQKAAGSPTPTPTTPTPTPTTPTPTPTGSDLGQKLLEAAWAGQDDEVRELLKAGADVNAKNSRGWTPLHTAAQTGHLEIFEVLLKAGADVNAKDDKGVTPLHLAAALGHLEIVEVLLKAGADVNAQDSWGTTPADLAAKYGHEDIAEVLQKAASGGGGGPQASTGRSGGGGGGSDLGKKLLQAARAGQLDEVRELLKAGADVNAKDAKGLTPLHLAAYHGHLEIVEVLLKAGADVNAKDVYGWTPLHIAAASGHLEIVEVLLKAGADVNAKDWLGWTPLHLAASAGHLEIVEVLLKAGADVNAQDKSGKTPADLAARAGHQDIAEVLQKAAGSHHHHHH
binding result (human CD3 on T cells [4]): no binding (tested: 100000 pM) | EC50 [5]: 0.353 nM

B9: Binder #10 (designed binder)
chain: MRGSHHHHHHGSDLGKKLLQAARAGQLDEVRELLKAGADVNAKDAKGLTPLHLAAYHGHLEIVEVLLKAGADVNAKDVAGWTPLHIAAASGHLEIVEVLLKAGADVNAKDWLGATPLHLAASHGHLEIVEVLLKAGADVNAQDKSGKTPADLAARAGHQDIAEVLQKAA
notes: N-terminal His-tag; also called 06E05v35
binding result [6]: binds

B10: Binder #8 (designed binder)
chain: B9 chain with A79Y, A114I, H123A
notes: N-terminal His-tag; also called 06E05v33
binding result [6]: binds

B11: Binder #6 (designed binder)
chain: B9 chain with A114I
notes: N-terminal His-tag; also called 06E05v31
binding result [6]: binds

B12: Binder #9 (designed binder)
chain: B9 chain with A79Y
notes: N-terminal His-tag; also called 06E05v34
binding result [6]: binds

B14: Binder #11 (designed binder)
chain: B9 chain with A79Y, W111A
notes: N-terminal His-tag; also called 06E05v36
binding result [6]: binds

B15: Binder #12 (designed binder)
chain: B9 chain with A79Y, H123A
notes: N-terminal His-tag; also called 06E05v37
binding result [6]: binds

Next, values leading:

binding result (human CD3 on T cells [4]): no binding | EC50 [5]: 0.593 nM
B5: CD3-PDD NCL EGFR-C7v122-[NCL1]-06E05v07-6His (designed binder)
chain: B2 chain with D216N, G219R, Q248R, E265Q, A398W, H410A

binding result (human CD3 on T cells [4]): no binding | EC50 [5]: 0.41 nM
B7: CD3-PDD CL EGFR-C7v122-[Linker#2]-06E05v07-6His (designed binder)
chain: B6 chain with D216N, G219R, Q248R, E265Q

binding result [6]: binds
B8: Binder #5 (designed binder)
chain: B9 chain with A79Y, A114I
notes: N-terminal His-tag; also called 06E05v30

binding result [6]: binds
B13: Binder #7 (designed binder)
chain: B9 chain with A79Y, W111A, A114I
notes: N-terminal His-tag; also called 06E05v32

T-cell activation EC50 (CD25 on CD8+ T cells), EGFR+ HCT 116 tumor cells and pan T-cells [7]: 0.0016 nM | T-cell activation EC50 (CD25 on CD8+ T cells), EGFR+++ A431 tumor cells and pan T-cells [7]: 0.0037 nM
B16: Active TCE EGFR-C7v14-6His (designed binder)
chain: MGSDLGYKLLRAAFHGQDDEVRILLAAGADVNAKDLIGQTPLHNAAWVGHLEIVEVLLKAGADVNAKDYYGNTPLHLAAHDGHLEIVEVLLKAGADVNAQDTWGETPADLATNAGHEDIAEVLQKAAGSPTPTPTTPTPTPTTPTPTPTGSDLGQKLLEAAWAGQDDEVRILLAAGADVNAKNSRGWTPLHTAAQTGHLEIFEVLLKAGADVNAKNDKRVTPLHLAAALGHLEIVEVLLKAGADVNARDSWGTTPADLAAKYGHGDIAEVLQKAAGSHHHHHH
